Measured values reported in article PMC4824355, “Translocator Protein-Mediated Stabilization of Mitochondrial Architecture during Inflammation Stress in Colonic Cells” (PLoS ONE, 2016).
“And” between values parts separate entries of the source, which are not always exact repeats. Equal entries are not always repeated.

Biological target: the molecule itself
Assay: SDS-PAGE and immunoblot of detergent-solubilised mitochondrial membranes; HT-29 mitochondrial membranes solubilised in SDS or 0.1% DDM, 4%-12% Tris-glycine SDS-PAGE, anti-TSPO blot; cells untreated or treated with 10 ng/mL TNF, 1 uM PK 11195 or both for 24, 48 or 72 h

B1: translocator protein (18 kDa; tryptophan-rich sensory protein oxygen sensor, TSPO) (natural protein, human (endogenous in HT-29), UniProt P30536 1-169, looked up)
chain: MAPPWVPAMGFTLAPSLGCFVGSRFVHGEGLRWYAGLQKPSWHPPHWVLGPVWGTLYSAMGYGSYLVWKELGGFTEKAVVPLGLYTGQLALNWAWPPIFFGARQMGWALVDLLLVSGAAAATTVAWYQVSPLAARLLYPYLAWLAFTTTLNYCVWRDNHGWRGGRRLPE
notes: translocator protein (18 kDa), TSPO, human, endogenous in HT-29 colon carcinoma cells; Seen as monomer, dimer and trimer bands on an anti-TSPO blot; also called peripheral-type benzodiazepine receptor; mitochondrial translocator protein; source: endogenous, HT-29 mitochondrial membranes solubilised with SDS or 0.1% DDM
  stoichiometry N: 3 and 2
